From the Human Domainome abundance scans (Beltran et al. 2025)
± gives the uncertainty stated by the source.

B1: Formin-binding protein 4, residues 200 to 261; numbered along this chain, Q8N3X1 (parent)
chain: SGWQYDTQCSLAGVGIEMGDWQEVWDENTGCYYYWNTQTNEVTWELPQYLATQVQGLQHYQP

Variants of: B1
Assay: abundance fitness (aPCA) (normalised: wild type 0, dead -1); higher = more abundant; growth selection in yeast, the domain comes from the species named
Conditions: Homo sapiens

Variant | abundance fitness
SGQQYDTQCSLAGVGIEMGDWQEVWDENTGCYYYWNTQTNEVTWELPQYLATQVQGLQHYQP [W3Q] | 0.157 ± 0.086
SGGQYDTQCSLAGVGIEMGDWQEVWDENTGCYYYWNTQTNEVTWELPQYLATQVQGLQHYQP [W3G] | -0.275 ± 0.058
SGRQYDTQCSLAGVGIEMGDWQEVWDENTGCYYYWNTQTNEVTWELPQYLATQVQGLQHYQP [W3R] | -0.202 ± 0.058
SGVQYDTQCSLAGVGIEMGDWQEVWDENTGCYYYWNTQTNEVTWELPQYLATQVQGLQHYQP [W3V] | 0.054 ± 0.053
SGTQYDTQCSLAGVGIEMGDWQEVWDENTGCYYYWNTQTNEVTWELPQYLATQVQGLQHYQP [W3T] | 0.168 ± 0.07
SGFQYDTQCSLAGVGIEMGDWQEVWDENTGCYYYWNTQTNEVTWELPQYLATQVQGLQHYQP [W3F] | 0.156 ± 0.09
SGAQYDTQCSLAGVGIEMGDWQEVWDENTGCYYYWNTQTNEVTWELPQYLATQVQGLQHYQP [W3A] | 0.002 ± 0.059
SGYQYDTQCSLAGVGIEMGDWQEVWDENTGCYYYWNTQTNEVTWELPQYLATQVQGLQHYQP [W3Y] | 0.012 ± 0.14
SGHQYDTQCSLAGVGIEMGDWQEVWDENTGCYYYWNTQTNEVTWELPQYLATQVQGLQHYQP [W3H] | -0.296 ± 0.1
SGIQYDTQCSLAGVGIEMGDWQEVWDENTGCYYYWNTQTNEVTWELPQYLATQVQGLQHYQP [W3I] | -0.217 ± 0.11
SGCQYDTQCSLAGVGIEMGDWQEVWDENTGCYYYWNTQTNEVTWELPQYLATQVQGLQHYQP [W3C] | -0.097 ± 0.083
SGKQYDTQCSLAGVGIEMGDWQEVWDENTGCYYYWNTQTNEVTWELPQYLATQVQGLQHYQP [W3K] | 0.138 ± 0.083
SGWDYDTQCSLAGVGIEMGDWQEVWDENTGCYYYWNTQTNEVTWELPQYLATQVQGLQHYQP [Q4D] | 0.182 ± 0.1
SGWCYDTQCSLAGVGIEMGDWQEVWDENTGCYYYWNTQTNEVTWELPQYLATQVQGLQHYQP [Q4C] | -0.051 ± 0.085
SGWEYDTQCSLAGVGIEMGDWQEVWDENTGCYYYWNTQTNEVTWELPQYLATQVQGLQHYQP [Q4E] | -0.037 ± 0.11
SGWAYDTQCSLAGVGIEMGDWQEVWDENTGCYYYWNTQTNEVTWELPQYLATQVQGLQHYQP [Q4A] | -0.447 ± 0.092
CGWQYDTQCSLAGVGIEMGDWQEVWDENTGCYYYWNTQTNEVTWELPQYLATQVQGLQHYQP [S1C] | -0.068 ± 0.16
DGWQYDTQCSLAGVGIEMGDWQEVWDENTGCYYYWNTQTNEVTWELPQYLATQVQGLQHYQP [S1D] | 0.085 ± 0.41
PGWQYDTQCSLAGVGIEMGDWQEVWDENTGCYYYWNTQTNEVTWELPQYLATQVQGLQHYQP [S1P] | -0.709 ± 0.2
HGWQYDTQCSLAGVGIEMGDWQEVWDENTGCYYYWNTQTNEVTWELPQYLATQVQGLQHYQP [S1H] | -0.921 ± 0.38
KGWQYDTQCSLAGVGIEMGDWQEVWDENTGCYYYWNTQTNEVTWELPQYLATQVQGLQHYQP [S1K] | 0.293 ± 0.15
WGWQYDTQCSLAGVGIEMGDWQEVWDENTGCYYYWNTQTNEVTWELPQYLATQVQGLQHYQP [S1W] | -0.075 ± 0.17
LGWQYDTQCSLAGVGIEMGDWQEVWDENTGCYYYWNTQTNEVTWELPQYLATQVQGLQHYQP [S1L] | -0.501 ± 0.11
NGWQYDTQCSLAGVGIEMGDWQEVWDENTGCYYYWNTQTNEVTWELPQYLATQVQGLQHYQP [S1N] | -0.093 ± 0.18
GGWQYDTQCSLAGVGIEMGDWQEVWDENTGCYYYWNTQTNEVTWELPQYLATQVQGLQHYQP [S1G] | 0.116 ± 0.11

Variant | abundance fitness
AGWQYDTQCSLAGVGIEMGDWQEVWDENTGCYYYWNTQTNEVTWELPQYLATQVQGLQHYQP [S1A] | 0.057 ± 0.11
EGWQYDTQCSLAGVGIEMGDWQEVWDENTGCYYYWNTQTNEVTWELPQYLATQVQGLQHYQP [S1E] | 0.066 ± 0.31
IGWQYDTQCSLAGVGIEMGDWQEVWDENTGCYYYWNTQTNEVTWELPQYLATQVQGLQHYQP [S1I] | -0.222 ± 0.28
YGWQYDTQCSLAGVGIEMGDWQEVWDENTGCYYYWNTQTNEVTWELPQYLATQVQGLQHYQP [S1Y] | -0.631 ± 0.2
FGWQYDTQCSLAGVGIEMGDWQEVWDENTGCYYYWNTQTNEVTWELPQYLATQVQGLQHYQP [S1F] | -0.457 ± 0.14
VGWQYDTQCSLAGVGIEMGDWQEVWDENTGCYYYWNTQTNEVTWELPQYLATQVQGLQHYQP [S1V] | -0.052 ± 0.09
QGWQYDTQCSLAGVGIEMGDWQEVWDENTGCYYYWNTQTNEVTWELPQYLATQVQGLQHYQP [S1Q] | -0.673 ± 0.35
MGWQYDTQCSLAGVGIEMGDWQEVWDENTGCYYYWNTQTNEVTWELPQYLATQVQGLQHYQP [S1M] | 0.503 ± 0.11
RGWQYDTQCSLAGVGIEMGDWQEVWDENTGCYYYWNTQTNEVTWELPQYLATQVQGLQHYQP [S1R] | -0.236 ± 0.22
TGWQYDTQCSLAGVGIEMGDWQEVWDENTGCYYYWNTQTNEVTWELPQYLATQVQGLQHYQP [S1T] | 0.046 ± 0.098
SSWQYDTQCSLAGVGIEMGDWQEVWDENTGCYYYWNTQTNEVTWELPQYLATQVQGLQHYQP [G2S] | 0.222 ± 0.065
SDWQYDTQCSLAGVGIEMGDWQEVWDENTGCYYYWNTQTNEVTWELPQYLATQVQGLQHYQP [G2D] | 0.196 ± 0.075
SQWQYDTQCSLAGVGIEMGDWQEVWDENTGCYYYWNTQTNEVTWELPQYLATQVQGLQHYQP [G2Q] | 0.052 ± 0.14
SYWQYDTQCSLAGVGIEMGDWQEVWDENTGCYYYWNTQTNEVTWELPQYLATQVQGLQHYQP [G2Y] | 0.422 ± 0.13
SCWQYDTQCSLAGVGIEMGDWQEVWDENTGCYYYWNTQTNEVTWELPQYLATQVQGLQHYQP [G2C] | -0.276 ± 0.11
SIWQYDTQCSLAGVGIEMGDWQEVWDENTGCYYYWNTQTNEVTWELPQYLATQVQGLQHYQP [G2I] | 0.273 ± 0.11
SFWQYDTQCSLAGVGIEMGDWQEVWDENTGCYYYWNTQTNEVTWELPQYLATQVQGLQHYQP [G2F] | 0.071 ± 0.13
STWQYDTQCSLAGVGIEMGDWQEVWDENTGCYYYWNTQTNEVTWELPQYLATQVQGLQHYQP [G2T] | 0.328 ± 0.083
SNWQYDTQCSLAGVGIEMGDWQEVWDENTGCYYYWNTQTNEVTWELPQYLATQVQGLQHYQP [G2N] | 0.405 ± 0.11
SMWQYDTQCSLAGVGIEMGDWQEVWDENTGCYYYWNTQTNEVTWELPQYLATQVQGLQHYQP [G2M] | 0.19 ± 0.11
SRWQYDTQCSLAGVGIEMGDWQEVWDENTGCYYYWNTQTNEVTWELPQYLATQVQGLQHYQP [G2R] | -0.097 ± 0.066
SHWQYDTQCSLAGVGIEMGDWQEVWDENTGCYYYWNTQTNEVTWELPQYLATQVQGLQHYQP [G2H] | 0.607 ± 0.17
SWWQYDTQCSLAGVGIEMGDWQEVWDENTGCYYYWNTQTNEVTWELPQYLATQVQGLQHYQP [G2W] | -0.25 ± 0.12
SLWQYDTQCSLAGVGIEMGDWQEVWDENTGCYYYWNTQTNEVTWELPQYLATQVQGLQHYQP [G2L] | -0.022 ± 0.081
